We go through three molecules from patent US5558865, “HIV immunotherapeutics” (Nissin Shokuhin Kabushiki Kaisha, dated 1996).

The target of test [1] is T1, IIIB loop peptide Peptide 2 (HIV-1 strain IIIB).
T1 peptide: RIQRGPGR
In words: competition ELISA, 5 µg/ml antibody preincubated with 50 µg/ml peptide, on coated recombinant IIIB gp120.

The target in test [2] is recombinant HIV-1MN gp120 (Agmed, Inc.) (HIV-1 strain MN, UniProt P05877). In words: Western blot.
Test [3] addresses T2, native HIV-1MN gp120 (HIV-1 strain MN, UniProt P05877). In words: Western blot.
The target in test [4] is recombinant HIV-1IIIB gp120 (DuPont-NEN) (HIV-1 strain IIIB, UniProt P04578). In words: Western blot, colorimetric.
For test [5], the target named is T3, native HIV-1IIIB gp120 (HIV-1 strain IIIB, UniProt P04578). In words: Western blot, colorimetric.
For test [6], the target named is V3 loop peptide of HIV-1 isolate ELI (HIV-1 isolate ELI). In words: peptide ELISA.
Test [7] deals with V3 loop peptide of HIV-1 isolate Z6 (HIV-1 isolate Z6). Nature of the test: peptide ELISA.
Test [8] deals with V3 loop peptide of HIV-1 isolate IIIB (HIV-1 isolate IIIB). In words: peptide ELISA.
For test [9], the target named is V3 loop peptide of HIV-1 isolate NY/5 (HIV-1 isolate NY/5). Nature of the test: peptide ELISA.
Test [10] deals with T4, V3 loop peptide of HIV-1 isolate MN (HIV-1 isolate MN).
T4 peptide: RIHIGPGRAFYTTKN
Nature of the test: peptide ELISA.

The target of test [11] is V3 loop peptide of HIV-1 isolate Z2 (HIV-1 isolate Z2). In words: peptide ELISA.
The target of test [12] is V3 loop peptide of HIV-1 isolate CDC4 (HIV-1 isolate CDC4). In words: peptide ELISA.
For test [13], the target named is T5, IIIB loop peptide Peptide 3 (HIV-1 strain IIIB).
T5 peptide: IQRGPGRA
In words: competition ELISA, 5 µg/ml antibody preincubated with 50 µg/ml peptide, on coated recombinant IIIB gp120.

Test [14] deals with T6, IIIB loop peptide Peptide 4 (HIV-1 strain IIIB).
T6 peptide: QRGPGRAF
The description is as above.

Test [15] has as its target T7, peptide of amino acids 312-326 of HIV-1MN gp120 (HIV-1 strain MN).
T7 peptide: RIHIGPGRAFYTTKN
Nature of the test: peptide ELISA, 9.50 ng NM-01.

The target in test [16] is T8, peptide of amino acids 302-316 of HIV-1MN gp120 (HIV-1 strain MN). In words: peptide ELISA, 9.50 ng NM-01.
Test [17] concerns the target T9, peptide of amino acids 322-336 of HIV-1MN gp120 (HIV-1 strain MN).
T9 peptide: YTTKNIIGTIRQAHC
In words: peptide ELISA, 9.50 ng NM-01.

Test [18] concerns the target T7, peptide of amino acids 312-326 of …. Nature of the test: peptide ELISA, 19.0 ng NM-01.
For test [19], the target named is T8, peptide of amino acids 302-316 of …. In words: peptide ELISA, 19.0 ng NM-01.
For test [20], the target named is T9, peptide of amino acids 322-336 of …. Nature of the test: peptide ELISA, 19.0 ng NM-01.
The target in test [21] is T3, native HIV-1IIIB gp120. Nature of the test: immunofluorescence on slides of IIIB-infected H9 cells.
For test [22], the target named is T7, peptide of amino acids 312-326 of …. Nature of the test: peptide ELISA, 4.75 ng NM-01.
Test [23] concerns the target T8, peptide of amino acids 302-316 of …. In words: peptide ELISA, 4.75 ng NM-01.
Test [24] concerns the target T9, peptide of amino acids 322-336 of …. In words: peptide ELISA, 4.75 ng NM-01.
Test [25] has as its target T2, native HIV-1MN gp120. In words: ELISA, hybridoma supernatant on membranes of MN-infected and uninfected H9 cells.
The target of test [26] is T2, native HIV-1MN gp120.
Test [27] concerns the target V3 loop peptide of HIV-1 isolate RF (HIV-1 isolate RF). Nature of the test: peptide ELISA.
Test [28] deals with T8, peptide of amino acids 302-316 of …. In words: peptide ELISA.
Test [29] deals with T9, peptide of amino acids 322-336 of …. In words: peptide ELISA.

B1: monoclonal antibody P4/D10 (antibody, V domains shown)
VH: QIQLQQSGAELASPGASVTLSCKASGYTFTDHIMNWVKKRPGQGLEWIGRIFPVSGETNYNQKFMGKATFSVDRSSSTVSMVLNSLTSEDPAVYYCDLIYYDYEEDYYFDYWGQGTTLTV
VL: DIVLTQSPASLAVSLGQRATISCRASESVDDYGISFMHWYQQKLGQPPKLLIYRASNLESGIPARFSGSGSGTEFTLTINPVETDDVATYYCQQSNKDPLTFGAGTKLELKR
As for B1, the binding result is recorded as “binds” in [1]; “no binding” in test [2]; “no binding” in [3]; “binds” in [4]; “binds” in [5]; “no binding” in [6]. In addition, the binding result is given as “no binding” in test [7]; “binds” in [8]; “no binding” in test [9]; “no binding” in test [10]; “no binding” in [11]; “no binding” in test [12].

B2: monoclonal antibody F58/H3 (antibody, V domains shown)
VH: B1 VH
VL: B1 VL
Regarding B2, the binding result in test [13] is listed as “binds”; in test [14], “binds”; in test [2], “no binding”; in test [3], “no binding”; in test [4], “binds”; in test [5] it was “binds”. Further, the binding result in test [6] was “no binding”; in test [7] it was “no binding”; in test [8], “binds”; in [9], “no binding”; in test [10], “no binding”; in test [11], “no binding”. In addition, in test [12], the binding result is listed as “no binding”.

B3: monoclonal antibody NM-01 (antibody, V domains shown)
VH: QIQLKESGPAVIKPSQSLSLTCIVSGFSITSSSYCWHWIRQPPGKGLEWMGRICYEGSIDYSPSIKSRSTISRDTSLNRFFIQLSSVTNEDTAMYYCSRENHGTTTSMDYWGQGTSVTVSS
VL: DIVLTQSPASLAVSLGQRATISCRASESVDSYGNSFMHWYQQKPGQSPKLLIYVASNLESGVPARFSGSGSRTDFTLTIDPVEADDAATYYCQQNNEDPLTFGAGTKLELKR
Take B3: the “optical density at 650 nm” value in test [15] worked out at 0.827 OD 650 nm; in test [16], 0.024 OD 650 nm; in test [17], 0.028 OD 650 nm; in test [18], 1.14 OD 650 nm; in [19], 0.024 OD 650 nm; in test [20], 0.03 OD 650 nm. For the same molecule, the “optical density at 650 nm” value in [22] is 0.781 OD 650 nm; in test [23], 0.024 OD 650 nm; in test [24] it was 0.03 OD 650 nm. In addition, the binding result in test [21] was “binds”; in [14], “binds”; in test [4], “binds”; in [6] it was “no binding”; in test [7] it was “no binding”; in test [8], “binds”. In addition, the binding result in test [9] is listed as “binds”; in [27], “binds”; in [28] it was “no binding (tested: 19.0 ng)”; in [11] it was “no binding”; in test [12], “binds”; in [29], “no binding (tested: 19.0 ng)”. Moreover, the “ELISA ratio, infected against uninfected cell membranes (Run 1)” value in [25] came to 5.76 ratio. In test [26], the “RIA ratio cpm inf/cpm uninf” value was determined as 9.81 ratio.
